Legend:
[1] = biological target: T1, human α4β7 integrin (human, UniProt P13612 34-1032; P26010 20-798); assay: flow cytometry on HuT 78 cells, transient COS-7 expression
T1 construct: whole, on cells; also called α4β7 integrin on HuT 78 cells; on RPMI 8866 cells

[2] = biological target: T1, human α4β7 integrin; assay: flow cytometry competition on HuT 78 cells; competitor biotinylated murine Act-1 held constant; experiment 2, lot 2
Method: (§1) Unless otherwise indicated, all reagents were diluted in 0.15 M PBS/1.0% FCS/0.1% sodium azide. The varying concentrations for both antibodies ranged in half-log increments from 2.0×10⁻⁶M to 5.0×10⁻¹¹M. After removal of the primary antibodies, the cells were then suspended in 100 μl streptavidin phycoerythrin (Dako Corp., Carpinteria, Calif.) diluted 1:200. After washing in 200 μl PBS, cells were resuspended in 0.5 ml of PBS/1% formalin and refrigerated until analyzed. Samples were analyzed on a FACScan (Becton Dickinson Corp., San Jose, Calif.) using a 488 nm laser to excite phycoerythrin. For each sample, a minimum of 10,000 cells was analyzed and MCF calculated. All samples were performed in duplicate. The IC₅₀ was determined as the concentration of unconjugated antibody producing a 50% reduction in the MCF from the biotinylated homologue antibody.

[3] = biological target: T1, human α4β7 integrin; assay: flow cytometry competition on HuT 78 cells; competitor biotinylated murine Act-1 held constant; experiment 3, lot 2
Method: as §1

[4] = biological target: T1, human α4β7 integrin; assay: flow cytometry competition on HuT 78 cells; competitor biotinylated murine Act-1 held constant; experiment 5, lot 2
Method: as §1

[5] = biological target: T1, human α4β7 integrin; assay: flow cytometry competition on HuT 78 cells; competitor biotinylated murine Act-1 held constant; experiment 1, lot 2
Method: as §1

[6] = biological target: T1, human α4β7 integrin; assay: flow cytometry competition on HuT 78 cells; competitor biotinylated LDP-02/3A9/Lot#1 held constant
Method: as §1

[7] = biological target: T1, human α4β7 integrin; assay: cell-based or functional assay
[8] = biological target: T1, human α4β7 integrin; assay: flow cytometry competition on HuT 78 cells; competitor biotinylated murine Act-1 held constant; experiment 4, lot 2
Method: as §1

[9] = biological target: T1, human α4β7 integrin; assay: flow cytometry competition on HuT 78 cells; competitor biotinylated murine Act-1 held constant; mean of 5 experiments
Method: as §1

[10] = biological target: T1, human α4β7 integrin; assay: flow cytometry titration of biotinylated antibody on HuT 78 cells, half-maximal mean channel fluorescence
Method: Unless otherwise indicated, all reagents were diluted in 0.15 M PBS/1.0% FCS/0.1% sodium azide. […] After washing in 200 μl PBS, cells were resuspended in 0.5 ml of PBS/1% formalin and refrigerated until analyzed. Samples were analyzed on a FACScan (Becton Dickinson Corp., San Jose, Calif.) using a 488 nm laser to excite phycoerythrin. […] All samples were performed in duplicate.

binding result [1]	IC50 [2] [nM]	IC50 [3] [nM]	IC50 [4] [nM]	IC50 [5] [nM]	IC50 [6] [nM]	IC50: concentration which inhibited by 50% the adhesion of RPMI 8866 cells to human MAdCAM-1-Ig chimera [7] [mg/L]	IC50 [8] [nM]	IC50 [9] [nM]	EC50 [10] [mg/L]	Binder
binds	–	–	–	–	–	–	–	–	–	derivative of LDP-02 (Fc-mutated) having a mutation in the light chain (MV4) plus a double mutation in the heavy chain (R38K, A40R) (antibody, human IgG1, V domains shown, transient COS-7 expression; also called M4V / R38K, A40R derivative) VH: QVQLVQSGAEVKKPGASVKVSCKGSGYTFTSYWMHWVKQRPGQRLEWIGEIDPSESNTNYNQKFKGRVTLTVDISASTAYMELSSLRSEDTAVYYCARGGYDGWDYAIDYWGQGTLVTVSS VL: DVVVTQSPLSLPVTPGEPASISCRSSQSLAKSYGNTYLSWYLQKPGQSPQLLIYGISNRFSGVPDRFSGSGSGTDFTLKISRVEAEDVGVYYCLQGTHQPYTFGQGTKVEIK
–	10.9	6.02	10.2	7.57	6.3	0.0018	4.91	7.94	0.1	murine Act-1 monoclonal antibody (antibody, mouse IgG1, V domains shown, Mouse IgG1/kappa from the Act-1 hybridoma; also called mouse Act-1; ACT-1 (murine)) VH: QVQLQQPGAELVKPGTSVKLSCKGYGYTFTSYWMHWVKQRPGQGLEWIGEIDPSESNTNYNQKFKGKATLTVDISSSTAYMQLSSLTSEDSAVYYCARGGYDGWDYAIDYWGQGTSVTVSS VL: DVVVTQTPLSLPVSFGDQVSISCRSSQSLAKSYGNTYLSWYLHKPGQSPQLLIYGISNRFSGVPDRFSGSGSGTDFTLKISTIKPEDLGMYYCLQGTHQPYTFGGGTKLEIK

From US20060292140A1 (published 2006)
